The record followed here is paper doi:10.1101/2020.11.11.367672 (bioRxiv, 2020).

Holding throughout (assay): pull-down
One experiment addresses T1, Dicer 256-595 domain (human, UniProt Q9UPY3 256-595).
T1 sequence: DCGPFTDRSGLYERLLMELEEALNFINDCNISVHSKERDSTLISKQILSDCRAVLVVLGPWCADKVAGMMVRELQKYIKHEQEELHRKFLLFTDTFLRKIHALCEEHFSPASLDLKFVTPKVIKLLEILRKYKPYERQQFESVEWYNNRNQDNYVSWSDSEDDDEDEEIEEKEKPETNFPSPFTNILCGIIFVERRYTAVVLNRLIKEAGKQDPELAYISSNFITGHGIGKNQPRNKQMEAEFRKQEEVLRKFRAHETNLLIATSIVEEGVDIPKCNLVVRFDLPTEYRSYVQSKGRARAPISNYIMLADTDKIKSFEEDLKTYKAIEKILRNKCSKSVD

The target in experiment [1] is RPAP3 TPR1 domain (residues 133-255) (human, UniProt Q9H6T3 133-255).
For experiment [2], the target named is GST (glutathione-S-transferase)-tagged RPAP3 (human, UniProt Q9H6T3 1-665).
Sequence of GST (glutathione-S-transferase)-tagged RPAP3 (Q9H6T3 whole entry): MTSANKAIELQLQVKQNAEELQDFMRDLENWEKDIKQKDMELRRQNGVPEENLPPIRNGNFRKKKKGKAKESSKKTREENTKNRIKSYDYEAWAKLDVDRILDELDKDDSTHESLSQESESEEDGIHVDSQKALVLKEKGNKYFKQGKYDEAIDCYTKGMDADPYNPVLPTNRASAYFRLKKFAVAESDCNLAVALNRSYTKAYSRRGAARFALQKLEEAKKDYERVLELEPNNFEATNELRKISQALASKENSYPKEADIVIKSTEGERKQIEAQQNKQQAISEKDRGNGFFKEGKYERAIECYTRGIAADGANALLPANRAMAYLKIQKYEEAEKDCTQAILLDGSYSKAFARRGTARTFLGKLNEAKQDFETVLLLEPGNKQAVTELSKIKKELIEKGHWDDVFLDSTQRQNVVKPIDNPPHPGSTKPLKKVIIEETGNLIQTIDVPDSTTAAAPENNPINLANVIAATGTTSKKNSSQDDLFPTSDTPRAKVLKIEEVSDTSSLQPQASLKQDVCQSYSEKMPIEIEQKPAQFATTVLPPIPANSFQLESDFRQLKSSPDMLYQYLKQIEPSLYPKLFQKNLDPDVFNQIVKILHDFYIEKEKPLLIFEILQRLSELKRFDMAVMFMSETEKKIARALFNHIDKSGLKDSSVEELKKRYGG

Sequence of RPAP3 TPR1 domain (residues 133-255) (Q9H6T3 133-255): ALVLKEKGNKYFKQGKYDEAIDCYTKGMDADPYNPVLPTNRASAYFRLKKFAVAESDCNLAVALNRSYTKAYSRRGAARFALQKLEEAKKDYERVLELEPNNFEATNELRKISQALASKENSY

B1: His6-tagged TRBP dsRBD3 (262-366) (domain or fragment)
chain: GCTWDSLRNSVGEKILSLRSCSLGSLGALGPACCRVLSELSEEQAFHVSYLDIEELSLSGLCQCLVELSTQPATVCHGSATTREAARGEAARRALQYLKIMAGSK
For the molecule B1, the binding result (with Dicer 256-595 domain; in experiment [1]) was “binds” in each case.

B2: His6-tagged TRBP protein (purified recombinant, GST pull-down) (natural protein)
chain: MSEEEQGSGTTTGCGLPSIEQMLAANPGKTPISLLQEYGTRIGKTPVYDLLKAEGQAHQPNFTFRVTVGDTSCTGQGPSKKAAKHKAAEVALKHLKGGSMLEPALEDSSSFSPLDSSLPEDIPVFTAAAAATPVPSVVLTRSPPMELQPPVSPQQSECNPVGALQELVVQKGWRLPEYTVTQESGPAHRKEFTMTCRVERFIEIGSGTSKKLAKRNAAAKMLLRVHTVPLDARDGNEVEPDDDHFSIGVGSRLDGLRNRGPGCTWDSLRNSVGEKILSLRSCSLGSLGALGPACCRVLSELSEEQAFHVSYLDIEELSLSGLCQCLVELSTQPATVCHGSATTREAARGEAARRALQYLKIMAGSK
Consider B2, for which the binding result in experiment [2] is given as “binds”.
